From paper PMC11707020

Molecular target: USP25 (UniProt Q9UHP3)
Assay: co-immunoprecipitation, western blot
Conditions: reference: HA-STAT3 wild type; sites Y705

- binding against the reference: weaker
Substance: STAT3 (from UniProt P40763) HA-STAT3 Y705F
